These results are taken from paper doi:10.1101/2022.06.27.497840 (bioRxiv, 2022).

First the molecules themselves.
T1: MBP-Mlh2 (Saccharomyces cerevisiae (SK1), UniProt Q07980 1-695)
T1 sequence: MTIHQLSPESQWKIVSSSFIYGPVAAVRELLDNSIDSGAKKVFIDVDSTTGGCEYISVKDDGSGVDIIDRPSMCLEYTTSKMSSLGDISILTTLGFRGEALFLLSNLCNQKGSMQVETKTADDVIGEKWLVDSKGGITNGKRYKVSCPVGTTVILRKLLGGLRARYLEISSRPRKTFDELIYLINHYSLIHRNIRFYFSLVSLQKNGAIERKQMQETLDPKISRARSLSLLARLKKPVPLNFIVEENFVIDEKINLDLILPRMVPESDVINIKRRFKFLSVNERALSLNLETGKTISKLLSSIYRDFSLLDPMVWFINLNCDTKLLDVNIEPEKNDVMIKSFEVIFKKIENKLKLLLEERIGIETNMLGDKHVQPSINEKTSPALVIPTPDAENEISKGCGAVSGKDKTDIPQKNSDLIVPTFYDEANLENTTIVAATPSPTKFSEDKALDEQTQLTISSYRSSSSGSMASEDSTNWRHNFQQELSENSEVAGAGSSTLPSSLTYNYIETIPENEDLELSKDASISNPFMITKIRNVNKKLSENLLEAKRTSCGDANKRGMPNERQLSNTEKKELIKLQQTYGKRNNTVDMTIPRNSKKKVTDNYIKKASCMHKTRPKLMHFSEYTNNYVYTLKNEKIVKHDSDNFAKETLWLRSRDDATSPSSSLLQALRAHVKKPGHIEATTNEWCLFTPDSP

T2: MBP-Mlh1/MBP-Mlh2 complex (Saccharomyces cerevisiae (SK1), UniProt P38920;Q07980)
T2 sequence 1: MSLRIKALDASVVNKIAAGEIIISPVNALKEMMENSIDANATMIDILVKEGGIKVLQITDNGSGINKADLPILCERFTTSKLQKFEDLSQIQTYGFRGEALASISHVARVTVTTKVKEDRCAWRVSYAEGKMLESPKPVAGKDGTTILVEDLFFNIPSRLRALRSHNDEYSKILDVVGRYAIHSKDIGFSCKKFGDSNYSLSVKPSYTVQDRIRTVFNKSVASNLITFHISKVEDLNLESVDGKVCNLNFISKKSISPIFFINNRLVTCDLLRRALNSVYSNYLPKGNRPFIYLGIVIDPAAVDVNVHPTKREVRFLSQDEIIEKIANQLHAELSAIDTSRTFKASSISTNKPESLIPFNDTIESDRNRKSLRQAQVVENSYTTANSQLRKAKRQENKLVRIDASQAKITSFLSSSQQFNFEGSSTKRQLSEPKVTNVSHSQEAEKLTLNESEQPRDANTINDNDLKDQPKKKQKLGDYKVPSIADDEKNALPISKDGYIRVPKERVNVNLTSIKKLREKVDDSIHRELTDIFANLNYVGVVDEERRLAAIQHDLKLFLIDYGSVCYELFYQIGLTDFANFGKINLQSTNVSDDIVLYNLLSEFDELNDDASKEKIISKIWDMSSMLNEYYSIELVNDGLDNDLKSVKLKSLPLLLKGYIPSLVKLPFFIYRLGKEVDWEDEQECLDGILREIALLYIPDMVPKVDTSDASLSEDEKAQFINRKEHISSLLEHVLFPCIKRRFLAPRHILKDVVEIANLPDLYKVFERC
T2 sequence 2: T1 sequence

T3: MBP-Mlh1 (Saccharomyces cerevisiae (SK1), UniProt P38920 1-769)
T3 sequence: T2 sequence 1

B1: His-tagged Sgs1(1-107) fragment (domain or fragment)
chain: MVTKPSHNLRREHKWLKETATLQEDKDFVFQAIQKHIANKRPKTNSPPTTPSKDECGPGTTNFITSIPASGPTNTATKQHEVMQTLSNDTEWLSYTATSNQYADVPM
B2: Rmi1 (subunit of the Top3/Rmi1 complex as used in XL-MS) (natural protein)
chain: MSFSSILSQDITDDITPPAYSATLGSREQIVFRAYQNEPWLAGTASNLILDKKLVIVDRELLFQVLMVENITKSKLTQIDDIKTKLDPKKQKVDRLRSGAQGNGAKKYEVITQVDMEDDGNVADNNCAKENNSNNNSSAAKNKAVFKLTLQSKSGDVFFAINSTPISWSSCMLGSKIVILPGTVFNRGVFILKDSQVIFLGGINRVWNENRDQKFCDYLESKLQRDKQLVNGGSKKRKAND
B3: Top3/GST-Rmi1 complex (complex)
chain 1: MKVLCVAEKNSIAKAVSQILGGGRSTSRDSGYMYVKNYDFMFSGFPFARNGANCEVTMTSVAGHLTGIDFSHDSHGWGKCAIQELFDAPLNEIMNNNQKKIASNIKREARNADYLMIWTDCDREGEYIGWEIWQEAKRGNRLIQNDQVYRAVFSHLERQHILNAARNPSRLDMKSVHAVGTRIEIDLRAGVTFTRLLTETLRNKLRNQATMTKDGAKHRGGNKNDSQVVSYGTCQFPTLGFVVDRFERIRNFVPEEFWYIQLVVENKDNGGTTTFQWDRGHLFDRLSVLTFYETCIETAGNVAQVVDLKSKPTTKYRPLPLTTVELQKNCARYLRLNAKQSLDAAEKLYQKGFISYPRTETDTFPHAMDLKSLVEKQAQLDQLAAGGRTAWASYAASLLQPENTSNNNKFKFPRSGSHDDKAHPPIHPIVSLGPEANVSPVERRVYEYVARHFLACCSEDAKGQSMTLVLDWAVERFSASGLVVLERNFLDVYPWARWETTKQLPRLEMNALVDIAKAEMKAGTTAPPKPMTESELILLMDTNGIGTDATIAEHIDKIQVRNYVRSEKVGKETYLQPTTLGVSLVHGFEAIGLEDSFAKPFQRREMEQDLKKICEGHASKTDVVKDIVEKYRKYWHKTNACKNTLLQVYDRVKASM
chain 2: B2 chain
B4: Top3/Rmi1 complex (as used in MST, XL-MS and D-loop assays) (complex)
chain 1: B3 chain 1
chain 2: B2 chain
B5: Sgs1(1-605) fragment, untagged (domain or fragment)
chain: MVTKPSHNLRREHKWLKETATLQEDKDFVFQAIQKHIANKRPKTNSPPTTPSKDECGPGTTNFITSIPASGPTNTATKQHEVMQTLSNDTEWLSYTATSNQYADVPMVDIPASTSVVSNPRTPNGSKTHNFNTFRPHMASSLVENDSSRNLGSRNNNKSVIDNSSIGKQLENDIKLEVIRLQGSLIMALKEQSKLLLQKCSIIESTSLSEDAKRLQLSRDIRPQLSNMSIRIDSLEKEIIKAKKDGMSKDQSKGRSQVSSQDDNIISSILPSPLEYNTSSRNSNLTSTTATTVTKALAITGAKQNITNNTGKNSNNDSNNDDLIQVLDDEDDIDCDPPVILKEGAPHSPAFPHLHMTSEEQDELTRRRNMRSREPVNYRIPDRDDPFDYVMGKSLRDDYPDVEREEDELTMEAEDDAHSSYMTTRDEEKEENELLNQSDFDFVVNDDLDPTQDTDYHDNMDVSANIQESSQEGDTRSTITLSQNKNVQVILSSPTAQSVPSNGQNQIGVEHIDLLEDDLEKDAILDDSMSFSFGRQHMPMSHSDLELIDSEKENEDFEEDNNNNGIEYLSDSDLERFDEERENRTQVADIQELDNDLKIITERKL
B6: Top3 (untagged, subunit of the Top3/Rmi1 complex) (enzyme)
chain: B3 chain 1

For experiment [1], the target named is Mer3-Strep (full-length S. cerevisiae Mer3 with C-terminal 2xStrep-II tag) (Saccharomyces cerevisiae (SK1)) (UniProt P51979). Description: SEC-MALS.
The experiment “Top3/GST-Rmi1 complex” deals with B3. Description: pull-down.
Experiment [2] has as its target B6. Briefly: cross-linking.
Another experiment addresses T1, MBP-Mlh2. Briefly: cross-linking.
For experiment [3], the target named is T2, MBP-Mlh1/MBP-Mlh2 complex. Description: pull-down.
Experiment [4] has as its target T2, MBP-Mlh1/MBP-Mlh2 complex. Description: cross-linking.
Another experiment addresses T3, MBP-Mlh1. Description: cross-linking.

For the molecule “Mer3-Strep (full-length S. cerevisiae Mer3 with C-terminal 2xStrep-II tag) (from UniProt P51979 1-1187) (enzyme)”, in experiment [1], the stoichiometry N is 2. Turning to B1, the binding result with Top3/GST-Rmi1 complex is listed as “binds”.

Regarding B2, the binding result (in experiment [2]; with MBP-Mlh2) was “binds” throughout.

With B3, the binding result in experiment [3] is on record as “binds”.

Turning to B4, the binding result in experiment [4] is reported as “binds”.

For B5, the binding result with Top3/GST-Rmi1 complex is listed as “binds”.

As for B6, the binding result in the experiment with MBP-Mlh1 was “binds”.
